The values below come from patent publication US20220411514A1, “ANTI-GAL3 ANTIBODIES AND METHODS OF USE FOR INSULIN RESISTANCE” (TrueBinding, Inc., priority 2021, published 2022).

For the assay, the system named is GLUT4 translocation in L6 GLUT4myc myoblasts. In words: Insulin-stimulated GLUT4 translocation with Gal3 and anti-Gal3 antibody. The class given is cell-based, rat. The note with it: 30 μg/mL Gal3 pre-incubated with 60 μg/mL antibody, 100 nM insulin. The procedure:
Rat L6 GLUT4myc myoblasts (Kerafast #ESK202-FP) express a Myc-tagged GLUT4 that can be detected with an anti-Myc antibody. These cells were grown in a 48-well plate in MEM u growth media (Gibco, #12-571-063)+10% fetal bovine serum (FBS; Corning #35-016-CV) until 90-95% confluence was reached. Cells were then washed in PBS and serum starved for 2 hours in MEM u growth media without FBS. Thirty (30) μg/mL recombinant human Gal3 (TrueBinding QCB200347) was pre-incubated with 60 μg/mL anti-Gal3 antibodies for 30 minutes before being added to the serum-starved cells for 1 hour at 37° C. At the end of incubation, half of the cells were treated with 100 nM insulin (Sigma-Aldrich #I5523-50MG) for 20 minutes while the other half acted as basal controls. After 20 minutes, cells were washed quickly with ice cold PBS twice, then incubated with 4% paraformaldehyde (Boster Bio #AR1068) for 10 minutes on ice followed by 10 minutes at room temperature. The cells were washed three times with PBS, then blocked with 0.5 mL 5% goat serum (Vector Laboratories #101098-382) in PBS for 15 minutes. After the blocking agent was aspirated from the cells, 1 μg/ml anti-Myc polyclonal antibody (Sigma-Aldrich #C-3956) in 5% goat serum was added for 1 hour. […] Primary antibody was aspirated away, and then cells washed 5 times with PBS. Next, cells (including background controls) were incubated with 1:1000 goat anti rabbit antibody secondary antibody (Abcam #Ab97051) in 5% Goat serum for 30 minutes at room temperature. After washing, cells were incubated with 400 μL of TMB (Thermo Scientific #PI34029) for 5 minutes, then 200 μL of 1N HCL (Avantor Performance #JT5620-2) was added to stop the reaction. 100 μL of the sample was transferred to a 96 well plate with duplicates transferred for each condition. Samples were read at 450 nm on a SpectraMax plate reader. […] The fold changes were plotted on GraphPad Prism and presented as mean (SEM) of the technical replicates. Statistical significance was determined using unpaired T-tests comparing samples treated with Gal3 and insulin with all other conditions.

B1: 2D10-hVH3-HVL2: anti-Gal3 antibody, VH SEQ ID NO: 811, VL SEQ ID NO: 826 (antibody, V domains shown)
VH: QVQLVQSGAEVKKPGASVKVSCKASGYTFTDYYINWVRQAPGQRLEWMGWIYPGSQDTKYSQKFQGRVTITVDTSASTAYMELSSLRSEDTAVYYCANYFGSSGWFFDVWGQGTMVTVSS
VL: DIVMTQSPLSLPVTPGEPASISCRSSKSLLHSDGITYLYWYLQKPGQSPQLLIYRMSNLASGVPDRFSGSGSGTDFTLKISRVEAEDVGVYYCAQMIEFPLTFGQGTKLEIK
modifications: VH-85 Peptide Sequence; VL-83 Peptide Sequence
On to B1, for which the “effect on Gal3 block of insulin-stimulated GLUT4 translocation” value (from here on “effect on Gal3 block”) is given as “reduce the ability of Gal3 to block GLUT4 translocation”.

B2: 2D10-hVH3-HVL3: anti-Gal3 antibody, VH SEQ ID NO: 812, VL SEQ ID NO: 827 (antibody, V domains shown)
VH: QVQLVQSGAEVKKPGASVKVSCKASGYTFTDYYINWVRQAPGQRLEWMGWIYPGSQDTKYSQKFQGRVTITVDTSASTAYMELSSLRSEDTAVYYCANYFGSSGWFFDVWGQGTMVTVSS
VL: DVVMTQSPLSLPVTLGQPASISCRSSKSLLHSDGITYLYWYQQRPGQSPRLLIYRMSNRDSGVPDRFSGSGSGTDFTLKISRVEAEDVGVYYCAQMIEFPLTFGQGTKLEIK
modifications: VH-86 Peptide Sequence; VL-84 Peptide Sequence
Take B2: the “effect on Gal3 block” value is recorded as “reduce the ability of Gal3 to block GLUT4 translocation”.

B3: 2D10-hVH3-HVL4: anti-Gal3 antibody, VH SEQ ID NO: 813, VL SEQ ID NO: 828 (antibody, V domains shown)
VH: QVQLVQSGAEVKKPGASVKVSCKASGYTFTDYYINWVRQAPGQRLEWMGWIYPGSQDTKYSQKFQGRVTITVDTSASTAYMELSSLRSEDTAVYYCANYFGSSGWFFDVWGQGTMVTVSS
VL: DIVMTQSPLSLPVTLGQPASISCRSSKSLLHSDGITYLYWYQQRPGQSPQLLIYRMSNLDSGVPDRFSGSGSGTDFTLKISRVEAEDVGVYYCAQMIEFPLTFGQGTKLEIK
modifications: VH-87 Peptide Sequence; VL-85 Peptide Sequence
On to B3, for which the “effect on Gal3 block” value is “reduce the ability of Gal3 to block GLUT4 translocation”.

B4: 20H5.A3-VH3VL1: anti-Gal3 antibody, VH SEQ ID NO: 814, VL SEQ ID NO: 829 (antibody, V domains shown)
VH: QIQLVQSGSELKKPGASVKVSCKASGYAFTTYGMSWVRQAPGQGLEWMGWVNTYSGVPTYADDFTGRFVFSLETSVSTAYLQISSLKAEDTAVYFCARGPYAMDYWGQGTLVTVSS
VL: DIQMTQSPSSLSASVGDRVTITCQASQDISNYLNWYQQKPGKAPKLLIYYTSSLLTGVPSRFSGSGSGTDYTFTISSLQPEDIATYYCQQYSKLPYTFGQGTKLEIK
modifications: VH-88 Peptide Sequence; VL-86 Peptide Sequence
B4: the “effect on Gal3 block” value was “reduce the ability of Gal3 to block insulin-dependent GLUT4 translocation”.

B5: 20H5.A3-VH5VL3: anti-Gal3 antibody, VH SEQ ID NO: 818, VL SEQ ID NO: 833 (antibody, V domains shown)
VH: QVQLVQSGFELKKPGASVKISCKASGYAFTTYGMSWVRQAPGQGLEWMGWVNTYSGVPTYAQAFTGRFVFSLDTSVSTAYLQISSLKAEDTAVYYCARGPYAMDYWGQGTLVTVSS
VL: DIQMTQSPSSLSASVGDRVTITCRASQDISNYLNWYQQKPGKAPKLLIYYTSSLLSGVPSRFSGSGSGTDYTLTISSLQPEDFATYYCQQYSKLPYTFGQGTKLEIK
modifications: VH-92 Peptide Sequence; VL-90 Peptide Sequence
Turning to B5, the “effect on Gal3 block” value was “reduce the ability of Gal3 to block insulin-dependent GLUT4 translocation”.

B6: 20H5.A3-VH6VL1: anti-Gal3 antibody, VH SEQ ID NO: 819, VL SEQ ID NO: 834 (antibody, V domains shown)
VH: QVQLVQSGFELKKPGASVKISCKASGYAFTTYGMSWVRQAPGQGLEWMGWVNTYSGVPTSAQAFTGRFVFSLDTSVSTAYLQISSLKAEDTAVYYCARGPYAMDYWGQGTLVTVSS
VL: DIQMTQSPSSLSASVGDRVTITCQASQDISNYLNWYQQKPGKAPKLLIYYTSSLLTGVPSRFSGSGSGTDYTFTISSLQPEDIATYYCQQYSKLPYTFGQGTKLEIK
modifications: VH-93 Peptide Sequence; VL-91 Peptide Sequence
Regarding B6, the “effect on Gal3 block” value is reported as “reduce the ability of Gal3 to block insulin-dependent GLUT4 translocation”.

B7: 20H5.A3-VH4VL1: anti-Gal3 antibody, VH SEQ ID NO: 816, VL SEQ ID NO: 831 (antibody, V domains shown)
VH: QIQLVQSGSELKKPGASVKVSCKASGYAFTTYGMSWVRQAPGQGLEWMGWVNTYSGVPTSADDFTGRFVFSLETSVSTAYLQISSLKAEDTAVYFCARGPYAMDYWGQGTLVTVSS
VL: DIQMTQSPSSLSASVGDRVTITCQASQDISNYLNWYQQKPGKAPKLLIYYTSSLLTGVPSRFSGSGSGTDYTFTISSLQPEDIATYYCQQYSKLPYTFGQGTKLEIK
modifications: VH-90 Peptide Sequence; VL-88 Peptide Sequence
Consider B7, for which the “effect on Gal3 block” value is “reduce the ability of Gal3 to block insulin-dependent GLUT4 translocation”.

B8: 20H5.A3-VH6VL3: anti-Gal3 antibody, VH SEQ ID NO: 820, VL SEQ ID NO: 835 (antibody, V domains shown)
VH: QVQLVQSGFELKKPGASVKISCKASGYAFTTYGMSWVRQAPGQGLEWMGWVNTYSGVPTSAQAFTGRFVFSLDTSVSTAYLQISSLKAEDTAVYYCARGPYAMDYWGQGTLVTVSS
VL: DIQMTQSPSSLSASVGDRVTITCRASQDISNYLNWYQQKPGKAPKLLIYYTSSLLSGVPSRFSGSGSGTDYTLTISSLQPEDFATYYCQQYSKLPYTFGQGTKLEIK
modifications: VH-94 Peptide Sequence; VL-92 Peptide Sequence
B8: the “effect on Gal3 block” value was “reduce the ability of Gal3 to block insulin-dependent GLUT4 translocation”.

B9: 20H5.A3-VH5VL1: anti-Gal3 antibody, VH SEQ ID NO: 817, VL SEQ ID NO: 832 (antibody, V domains shown)
VH: QVQLVQSGFELKKPGASVKISCKASGYAFTTYGMSWVRQAPGQGLEWMGWVNTYSGVPTYAQAFTGRFVFSLDTSVSTAYLQISSLKAEDTAVYYCARGPYAMDYWGQGTLVTVSS
VL: DIQMTQSPSSLSASVGDRVTITCQASQDISNYLNWYQQKPGKAPKLLIYYTSSLLTGVPSRFSGSGSGTDYTFTISSLQPEDIATYYCQQYSKLPYTFGQGTKLEIK
modifications: VH-91 Peptide Sequence; VL-89 Peptide Sequence
Consider B9, for which the “effect on Gal3 block” value is “reduce the ability of Gal3 to block insulin-dependent GLUT4 translocation”.

B10: 20H5.A3-VH3VL3: anti-Gal3 antibody, VH SEQ ID NO: 815, VL SEQ ID NO: 830 (antibody, V domains shown)
VH: QIQLVQSGSELKKPGASVKVSCKASGYAFTTYGMSWVRQAPGQGLEWMGWVNTYSGVPTYADDFTGRFVFSLETSVSTAYLQISSLKAEDTAVYFCARGPYAMDYWGQGTLVTVSS
VL: DIQMTQSPSSLSASVGDRVTITCRASQDISNYLNWYQQKPGKAPKLLIYYTSSLLSGVPSRFSGSGSGTDYTLTISSLQPEDFATYYCQQYSKLPYTFGQGTKLEIK
modifications: VH-89 Peptide Sequence; VL-87 Peptide Sequence
As to B10, the “effect on Gal3 block” value is on record as “reduce the ability of Gal3 to block insulin-dependent GLUT4 translocation”.
